These results are taken from US20020177177A1 (PROLIFIX, published 2002).

The target of this experiment is T1, E. coli-produced 6X histidine-tagged cyclin D1 (UniProt P24385 1-295, limits assumed).
T1 construct: also called His-cyclin D1; His-D1; not shown: 6X histidine tag
The experiment can be described thus: GST pull-down on glutathione-agarose, anti-cyclin D1 Western blot. How it is done: To ask which domain or motif of SRC-1 is involved in cyclin D1 binding, we generated a series a GST-SRC1 deletion mutants. […] In the in vitro binding assay, the series of GST-containing proteins were incubated with bacterially expressed His-tagged cyclin D1 and immobilized on glutathione-agarose. Cyclin D1 binding was detected by Western blot analysis using anti-cyclin D1 antibody. Binding was not detected to GST alone.
On the technique in general: Immunoblotting shows a protein as a band on a membrane.

T1 sequence (P24385 whole entry): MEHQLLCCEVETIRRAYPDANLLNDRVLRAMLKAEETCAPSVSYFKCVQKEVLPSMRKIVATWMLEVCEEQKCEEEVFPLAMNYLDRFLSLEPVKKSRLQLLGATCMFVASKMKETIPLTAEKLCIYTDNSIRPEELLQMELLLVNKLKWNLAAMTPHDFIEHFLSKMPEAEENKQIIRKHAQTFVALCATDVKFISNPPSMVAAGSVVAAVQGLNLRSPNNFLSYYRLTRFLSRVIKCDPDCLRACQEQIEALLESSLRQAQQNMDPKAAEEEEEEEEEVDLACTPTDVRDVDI

B1: GST-SRC1 361-568 (other, human, UniProt Q15788 361-568, looked up)
chain: IHIIDREHSGLSPQDDTNSGMSIPRVNPSVNPSISPAHGVARSSTLPPSNSNMVSTRINRQQSSDLHSSSHSNSSNSQGSFGCSPGSQIVANVALNQGQASSQSSNPSLNLNNSPMEGTGISLAQFMSPRRQVTSGLATRPRMPNNSFPPNISTLSSPVGMTSSACNNNNRSYSNIPVTSLQGMNEGPNNSVGFSASSPVLRQMSSQN
notes: not shown: glutathione-S-transferase (GST) fusion partner
As for B1, the binding result was “no binding”.
